Laboratory results reported in patent US20030166872A1 (APPLIED MOLECULAR EVOLUTION, published 2003).
Substitutions are numbered along the chain they refer to.

B1: LM609 grafted antibody combinatorial clone 2G4 (Fab, V domains shown)
VH: QVQLVESGGGVVQPGRSLRLSCAASGFTFSSYDMSWVRQAPGKGLEWVAKVSSGGGSTYYLDTVQGRFTISRDNSKNTLYLQMNSLRAEDTAVYYCARHNYGSFASWGQGTTVTVSS
VL: EIVLTQSPATLSLSPGERATLSCQASQSISNHLHWYQQRPGQAPRLLIRYRSQSISGIPARFSGSGSGTDFTLTISSLEPEDFAVYYCQQSGSWPLTFGGGTKVEIK
notes: Fab
B2: LM609 grafted antibody combinatorial clone C37 (Fab, V domains shown)
VH: B1 VH with A105Y, S106E
VL: B1 VL
notes: Fab
B3: LM609 grafted antibody combinatorial clone C176 (Fab, V domains shown)
VH: B1 VH with L61P, S106T
VL: B1 VL with H32F, L96H
notes: Fab
B4: LM609 grafted antibody combinatorial clone 7 (Fab, V domains shown)
VH: B1 VH with L61P, Y101H
VL: B1 VL with H32F, L96H
notes: Fab
B5: LM609 grafted antibody combinatorial clone C29 (Fab, V domains shown)
VH: B1 VH with L61P, Y101H, A105Y
VL: B1 VL
notes: Fab
B6: LM609 grafted antibody combinatorial clone 6G1 (Fab, V domains shown)
VH: B1 VH with L61P
VL: B1 VL
notes: Fab
B7: LM609 grafted antibody combinatorial clone 17 (Fab, V domains shown)
VH: B1 VH
VL: B1 VL with H32F, L96H
notes: Fab
B8: LM609 grafted antibody combinatorial clone 8F9 (Fab, V domains shown)
VH: B1 VH with L61P, Y101H
VL: B1 VL
notes: Fab
B9: LM609 grafted antibody combinatorial clone 6D1 (Fab, V domains shown)
VH: B1 VH with L61P, A105Y
VL: B1 VL
notes: Fab
B10: LM609 grafted antibody combinatorial clone C119 (Fab, V domains shown)
VH: B1 VH with L61P
VL: B1 VL with G92N, L96H
notes: Fab
B11: LM609 grafted antibody combinatorial clone 56 (Fab, V domains shown)
VH: B1 VH with L61P
VL: B1 VL with H32F, L96H
notes: Fab
B12: LM609 grafted antibody variant E102 (Fab, V domains shown)
VH: B1 VH with S106E
VL: B1 VL with L96H
notes: Fab
B13: LM609 grafted antibody variant L30 (Fab, V domains shown)
VH: B1 VH with S30L, S106Y
VL: B1 VL with L96H
notes: Fab
B14: LM609 grafted antibody variant F32 (Fab, V domains shown)
VH: B1 VH with S106Y
VL: B1 VL with H32F, L96H
notes: Fab
B15: LM609 grafted antibody variant K52 (Fab, V domains shown)
VH: B1 VH with S52K, S106Y
VL: B1 VL with L96H
notes: Fab
B16: LM609 grafted antibody variant A102 (Fab, V domains shown)
VH: B1 VH with S106A
VL: B1 VL with L96H
notes: Fab
B17: LM609 grafted antibody variant G102 (Fab, V domains shown)
VH: B1 VH with S106G
VL: B1 VL with L96H
notes: Fab

Target: T1, integrin αVβ3 (human, UniProt P06756 31-1048; P05106 27-788)
T1 construct: mature; biotinylated in capture lift and capture ELISA; also on M21 melanoma cells in some assays; also called vitronectin receptor; αVβ3 receptor
Experiment: SPR (BIAcore)

| fold slower dissociation rate [fold] | fold greater association rate [fold] | Binder |
| --- | --- | --- |
| > 10 | – | B1 |
| > 10 | – | B2 |
| > 10 | – | B3 |
| > 10 | – | B4 |
| > 10 | 2 to 4 | B5 |
| > 10 | 2 to 4 | B6 |
| > 10 | – | B7 |
| > 10 | – | B8 |
| > 10 | – | B9 |
| > 10 | – | B10 |
| > 10 | – | B11 |

Target: T1, integrin αVβ3
Experiment: ELISA titration of Fab on immobilized αVβ3
Protocol: For ELISA titration of Fab on immobilized αVβ₃ and the related integrins αVβ₅ and αIIbβ₃, Immulon II microtiter plates were coated with 1 μg/ml purified receptor in 20 mM Tris, pH 7.4, 150 mM NaCl, 2 mM CaCl, 1 mM MgCl₂, 1 mM MnCl₂, washed once, and blocked in 3% BSA in 50 mM Tris, pH 7.4, 100 mM NaCl, 2 mM CaCl₂, 1 mM MgCl₂ for 1 h at 25° C. […] Just prior to use, the plates were washed two times and were then incubated 1 h at 25° C. with various dilutions of Fab. […] All dilutions and washes were in 50 mM Tris-HCl, pH 7.4, 100 mM NaCl, 2 mM CaCl₂, and 1 mM MgCl₂.

| fold enhanced binding over LM609 grafted antibody [fold] | Binder |
| --- | --- |
| > 3 | B12 |
| > 3 | B13 |
| > 3 | B14 |
| > 3 | B15 |
| > 3 | B16 |
| > 3 | B17 |
